Reference: paper PMC4595836

Target: T1, ScbR (Streptomyces coelicolor A3(2) M145) (UniProt Q7AKF1)
T1 sequence: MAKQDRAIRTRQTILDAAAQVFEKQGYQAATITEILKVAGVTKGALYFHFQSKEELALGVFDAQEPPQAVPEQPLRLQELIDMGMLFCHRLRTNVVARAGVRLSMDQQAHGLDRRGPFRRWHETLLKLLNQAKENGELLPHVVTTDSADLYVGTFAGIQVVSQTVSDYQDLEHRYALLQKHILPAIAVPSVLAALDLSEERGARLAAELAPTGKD
Test: DNase I footprinting
Settings: EMSA: 6-12 ng probe, ScbR 0.21-3.77 uM, ScbR2 0.207-4.15 uM; buffer, salt, pH and temperature not in material (as described in earlier work)

CCCTCATGTCCGAACAGCTCGACACCGCCGTCGAAACAGACGGCAAGGGCGACCTCGCCACGTTGTTCAACGGTGGGGACACCTTCTCCCATTGAAAACCGGCGAGGAGGTTTGTTAATCCCATGTTCCCTGGACCGACCTGTTTCGAGATCGAGGAGGACAGTTGAGCGCCACTTCTGCCCCCGCACCCCAGCACGGCATGACCTGGCTGGGAGCCATCGTGGAGGACGGCTTCACGGAGACGTTGCAGGACGGGCTCAG (double strand) [sco6268 promoter footprint probe]
binding: binds
